According to US9958461B2, “Detection of protein to protein interactions” (THE GOVERNING COUNCIL OF THE UNIVERSITY OF TORONTO, priority 2013, dated 2018):

B1: TNS3 (protein, UniProt Q68CZ2 1-1445, looked up)
Tensin-3: MEEGHGLDLTYITERIIAVSFPAGCSEESYLHNLQEVTRMLKSKHGDNYLVLNLSEKRYDLTKLNPKIMDVGWPELHAPPLDKMCTICKAQESWLNSNLQHVVVIHCRGGKGRIGVVISSYMHFTNVSASADQALDRFAMKKFYDDKVSALMQPSQKRYVQFLSGLLSGSVKMNASPLFLHFVILHGTPNFDTGGVCRPFLKLYQAMQPVYTSGIYNVGPENPSRICIVIEPAQLLKGDVMVKCYHKKYRSATRDVIFRLQFHTGAVQGYGLVFGKEDLDNASKDDRFPDYGKVELVFSATPEKIQGSEHLYNDHGVIVDYNTTDPLIRWDSYENLSADGEVLHTQGPVDGSLYAKVRKKSSSDPGIPGGPQAIPATNSPDHSDHTLSVSSDSGHSTASARTDKTEERLAPGTRRGLSAQEKAELDQLLSGFGLEDPGSSLKEMTDARSKYSGTRHVVPAQVHVNGDAALKDRETDILDDEMPHHDLHSVDSLGTLSSSEGPQSAHLGPFTCHKSSQNSLLSDGFGSNVGEDPQGTLVPDLGLGMDGPYERERTFGSREPKQPQPLLRKPSVSAQMQAYGQSSYSTQTWVRQQQMVVAHQYSFAPDGEARLVSRCPADNPGLVQAQPRVPLTPTRGTSSRVAVQRGVGSGPHPPDTQQPSPSKAFKPRFPGDQVVNGAGPELSTGPSPGSPTLDIDQSIEQLNRLILELDPTFEPIPTHMNALGSQANGSVSPDSVGGGLRASSRLPDTGEGPSRATGRQGSSAEQPLGGRLRKLSLGQYDNDAGGQLPFSKCAWGKAGVDYAPNLPPFPSPADVKETMTPGYPQDLDIIDGRILSSKESMCSTPAFPVSPETPYVKTALRHPPFSPPEPPLSSPASQHKGGREPRSCPETLTHAVGMSESPIGPKSTMLRADASSTPSFQQAFASSCTISSNGPGQRRESSSSAERQWVESSPKPMVSLLGSGRPTGSPLSAEFSGTRKDSPVLSCFPPSELQAPFHSHELSLAEPPDSLAPPSSQAFLGFGTAPVGSGLPPEEDLGALLANSHGASPTPSIPLTATGAADNGFLSHNFLTVAPGHSSHHSPGLQGQGVTLPGQPPLPEKKRASEGDRSLGSVSPSSSGFSSPHSGSTISIPFPNVLPDFSKASEAASPLPDSPGDKLVIVKFVQDTSKFWYKADISREQAIAMLKDKEPGSFIVRDSHSFRGAYGLAMKVATPPPSVLQLNKKAGDLANELVRHFLIECTPKGVRLKGCSNEPYFGSLTALVCQHSITPLALPCKLLIPERDPLEEIAESSPQTAANSAAELLKQGAACNVWYLNSVEMESLTGHQAIQKALSITLVQEPPPVSTVVHFKVSAQGITLTDNQRKLFFRRHYPVNSVIFCALDPQDRKWIKDGPSSKVFGFVARKQGSATDNVCHLFAEHDPEQPASAIVNFVSKVMIGSPKKV
B2: ARHGEF7 (protein, UniProt Q14155 1-803, looked up)
Rho guanine nucleotide …: MNSAEQTVTWLITLGVLESPKKTISDPEGFLQASLKDGVVLCRLLERLLPGTIEKVYPEPRSESECLSNIREFLRGCGASLRLELLFPPSQPPQHLVTTILLSASTFDANDLYQGQNFNKVLSSLVTLNKVTADIGLGSDSVCARPSSHRIKSFDSLGSQSLHTRTSKLFQGQYRSLDMTDNSNNQLVVRAKFNFQQTNEDELSFSKGDVIHVTRVEEGGWWEGTLNGRTGWFPSNYVREVKASEKPVSPKSGTLKSPPKGFDTTAINKSYYNVVLQNILETENEYSKELQTVLSTYLRPLQTSEKLSSANISYLMGNLEEICSFQQMLVQSLEECTKLPEAQQRVGGCFLNLMPQMKTLYLTYCANHPSAVNVLTEHSEELGEFMETKGASSPGILVLTTGLSKPFMRLDKYPTLLKELERHMEDYHTDRQDIQKSMAAFKNLSAQCQEVRKRKELELQILTEAIRNWEGDDIKTLGNVTYMSQVLIQCAGSEEKNERYLLLFPNVLLMLSASPRMSGFIYQGKLPTTGMTITKLEDSENHRNAFEISGSMIERILVSCNNQQDLQEWVEHLQKQTKVTSVGNPTIKPHSVPSHTLPSHPVTPSSKHADSKPAPLTPAYHTLPHPSHHGTPHTTINWGPLEPPKTPKPWSLSCLRPAPPLRPSAALCYKEDLSKSPKTMKKLLPKRKPERKPSDEEFASRKSTAALEEDAQILKVIEAYCTSAKTRQTLNSTWQGTDLMHNHVLADDDQPSLDSLGRRSSLSRLEPSDLSEDSDYDSIWTAHSYRMGSTSRKSCCSYISHQN
B3: HSPA4 (protein, UniProt P34932 1-840, looked up)
Heat shock 70 kDa protein 4: MSVVGIDLGFQSCYVAVARAGGIETIANEYSDRCTPACISFGPKNRSIGAAAKSQVISNAKNTVQGFKRFHGRAFSDPFVEAEKSNLAYDIVQLPTGLTGIKVTYMEEERNFTTEQVTAMLLSKLKETAESVLKKPVVDCVVSVPCFYTDAERRSVMDATQIAGLNCLRLMNETTAVALAYGIYKQDLPALEEKPRNVVFVDMGHSAYQVSVCAFNRGKLKVLATAFDTTLGGRKFDEVLVNHFCEEFGKKYKLDIKSKIRALLRLSQECEKLKKLMSANASDLPLSIECFMNDVDVSGTMNRGKFLEMCNDLLARVEPPLRSVLEQTKLKKEDIYAVEIVGGATRIPAVKEKISKFFGKELSTTLNADEAVTRGCALQCAILSPAFKVREFSITDVVPYPISLRWNSPAEEGSSDCEVFSKNHAAPFSKVLTFYRKEPFTLEAYYSSPQDLPYPDPAIAQFSVQKVTPQSDGSSSKVKVKVRVNVHGIFSVSSASLVEVHKSEENEEPMETDQNAKEEEKMQVDQEEPHVEEQQQQTPAENKAESEEMETSQAGSKDKKMDQPPQAKKAKVKTSTVDLPIENQLLWQIDREMLNLYIENEGKMIMQDKLEKERNDAKNAVEEYVYEMRDKLSGEYEKFVSEDDRNSFTLKLEDTENWLYEDGEDQPKQVYVDKLAELKNLGQPIKIRFQESEERPKLFEELGKQIQQYMKIISSFKNKEDQYDHLDAADMTKVEKSTNEAMEWMNNKLNLQNKQSLTMDPVVKSKEIEAKIKELTSTCSPIISKPKPKVEPPKEEQKNAEQNGPVDGQGDNPGPQAAEQGTDTAVPSDSDKKLPEMDID
B4: SHC4 (protein, UniProt Q6S5L8 1-630, looked up)
SHC-transforming protein 4: MRERGQDSLAGLVLYVGLFGHPGMLHRAKYSRFRNESITSLDEGSSGGSVGNKGSPQPPHPALAPHLPTEDATLPSQESPTPLCTLIPRMASMKLANPATLLSLKNFCLGTKEVPRLKLQESRDPGSSGPSSPETSLSRSGTAPPPQQDLVGHRATALTPDSCPLPGPGEPTLRSRQDRHFLQHLLGMGMNYCVRYMGCVEVLQSMRSLDFGMRTQVTREAISRLCEAVPGANGAIKKRKPPVKFLSTVLGKSNLQFSGMNIKLTISTCSLTLMNLDNQQIIANHHMQSISFASGGDPDTTDYVAYVAKDPVNQRACHILECHNGMAQDVISTIGQAFELRFKQYLKNPSLNTSCESEEVHIDSHAEEREDHEYYNEIPGKQPPVGGVSDMRIKVQATEQMAYCPIQCEKLCYLPGNSKCSSVYENCLEQSRAIGNVHPRGVQSQRDTSLLKHTCRVDLFDDPCYINTQALQSTPGSAGNQRSAQPLGSPWHCGKAPETVQPGATAQPASSHSLPHIKQQLWSEECYHGKLSRKAAESLLVKDGDFLVRESATSPGQYVLSGLQGGQAKHLLLVDPEGKVRTKDHVFDNVGHLIRYHMDNSLPIISSGSEVSLKQPVRKDNNPALLHSNK

Each molecule was assayed against T1, EGFR-L858R (Homo sapiens, UniProt P00533, L858R) (assay: MaMTH EGFR-interactor screen, lentiviral preys against EGFR-L858R bait (interaction score)). Conditions: MaMTH interaction score of prey with EGFR-L858R bait.
T1 construct: with the advantage of testing full-length integral membrane proteins; (GGGGS)2 linker-Cub (human ubiquitin aa 35-76)-GAL4(1-147)-mNFkB(364-550) (C); expressed in transfected cells
Format: cell-based
Procedure, shortened: (§1)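 Interaction score is the luciferase fold-change versus averaged negative controls (Fabp5, Pex19, Pex7, GABBR2), with >1 called interacting. Luciferase was measured 24 h after triplicate bait transfection. This followed single-copy prey transduction (MOI ~0.3-0.4) of GAL4UAS-luciferase HEK293T cells and ≥48 h puromycin selection.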
For B1, the EGFR-L858R mean was 3.12.
With B2 the EGFR-L858R mean was 2.76.
For B3, the EGFR-L858R mean was 2.48.
B4 showed an EGFR-L858R mean of 11.39.

What follows are molecules tested against T2, EGFR-Wt (Homo sapiens, UniProt P00533) (assay: MaMTH EGFR-interactor screen, lentiviral preys against EGFR-wildtype bait (interaction score)). Conditions: MaMTH interaction score of prey with EGFR-Wt bait, mean.
T2 construct: with the advantage of testing full-length integral membrane proteins; (GGGGS)2 linker-Cub (human ubiquitin aa 35-76)-GAL4(1-147)-mNFkB(364-550) (C); expressed in transfected cells
Format: cell-based
Procedure, shortened: as §1
B1 showed an EGFR-Wt mean of 1.39.
For B2, the EGFR-Wt mean was 1.24.
B3 gave an EGFR-Wt mean of 1.13.
For B4, the EGFR-Wt mean was 5.31.

Each molecule was assayed on EGFR-Wt in the same assay as above. Conditions: ratio of EGFR-Wt mean to EGFR-L858R mean interaction score.
Format: cell-based, human
Procedure, shortened: as §1
In the case of B1, the Wt/L858R is reported as 0.45.
With B2 the Wt/L858R was 0.45.
With B3 the Wt/L858R was 0.46.
For B4, the Wt/L858R was 0.47.
